Consider four substances from patent publication US20260022153A1 (AMIDEBIO, LLC, priority 2017, published 2026).

Broadly, the Kd is the equilibrium constant for the complex coming apart. A higher Kd goes with weaker binding.

In one series the target is IGF1 receptor (IGF1R) (Homo sapiens, UniProt P08069). As to the kind of experiment: Binding affinity of insulin analogs to the IGF1 receptor (IGF1R). The note with it: in the absence of glucose.
Another series has as its target insulin receptor (Homo sapiens, UniProt P06213). The note with it: cited from earlier work.
The conditions of series [1]: after one year in acidic formulations; cited from earlier work.

For the substance “SEQ ID NO: 5: single chain insulin analog […] (FVDQHLCGSHLVEALYLVCGERGFFYTPKTYDGKGIVEQCCTSICSLYQLENYCG)”, in the series with IGF1 receptor (IGF1R), the Kd was determined as 30.4 nM.
With “SEQ ID NO: 7: single chain insulin analog […] (FVGQHLCGSHLVEALYLVCGERGFFYTPKTYDGKGIVEQCCTSICSLYQLENYCG)”, in the series with IGF1 receptor (IGF1R), the Kd worked out at 26.8 nM.
For “Wakayama mutation ValA3Leu: insulin with a valine to leucine substitution at position A3 of Insulin Chain A, a naturally occurring mutation”, the “fold lower affinity for the insulin receptor compared to wildtype insulin” value in the series with insulin receptor was 500 fold.
Consider insulin, for which the Kd with IGF1 receptor (IGF1R) stood at 5.66 nM. The AsnA21 deamidation in series [1] is 20-30%.
